The target of this data set is Uncleaved SARS-CoV-2 3CLpro (N-terminal 6xHIS-tag followed by TEV-protease cleavage site).

Consider one protein from US20230090502.

B1: TEV-protease (New England Biolabs, includes a HIS-tag) (protein)
chain: GESLFKGPRDYNPISSTICHLTNESDGHTTSLYGIGFGPFIITNKHLFRRNNGTLLVQSLHGVFKVKNTTTLQQHLIDGRDMIIIRMPKDFPPFPQKLKFREPQREERICLVTTNFQTKSMSSMVSDTSCTFPSSDGIFWKHWIQTKDGQCGSPLVSTRDGFIVGIHSASNFTNTNNYFTSVPKNFMELLTNQEAQQWVSGWRLNADSVLWGGHKVFMSKPEEPFQPVKEATQLMNELVYSQ
For the protein B1, the “cleavage of the HIS-tag, SDS-PAGE” value was “Cleavage of the 3CLpro was successful”.
